Reference: publication PMC1933424

How the values were obtained:
[1] = Western blot of yeast culture supernatant, 30°C; details: glycan lost; control: wild-type full-length GA
[2] = extracellular GA activity of yeast cultures, 30°C; details: glycan lost; control: wild-type full-length GA

B1: Rhizopus oryzae glucoamylase (RoGA): Asn167 to Gln (protein)
parent chain: MQLFNLPLKVSFFLVLSYFSLLVSAASIPSSASVQLDSYNYDGSTFSGKIYVKNIAYSKKVTVIYADGSDNWNNNGNTIAASYSAPISGSNYEYWTFSASINGIKEFYIKYEVSGKTYYDNNNSANYQVSTSKPTTTTATATTTTAPSTSTTTPPSRSEPATFPTGNSTISSWIKKQEGISRFAMLRNINPPGSATGFIAASLSTAGPDYYYAWTRDAALTSNVIVYEYNTTLSGNKTILNVLKDYVTFSVKTQSTSTVCNCLGEPKFNPDASGYTGAWGRPQNDGPAERATTFILFADSYLTQTKDASYVTGTLKPAIFKDLDYVVNVWSNGCFDLWEEVNGVHFYTLMVMRKGLLLGADFAKRNGDSTRASTYSSTASTIANKISSFWVSSNNWIQVSQSVTGGVSKKGLDVSTLLAANLGSVDDGFFTPGSEKILATAVAVEDSFASLYPINKNLPSYLGNSIGRYPEDTYNGNGNSQGNSWFLAVTGYAELYYRAIKEWIGNGGVTVSSISLPFFKKFDSSATSGKKYTVGTSDFNNLAQNIALAADRFLSTVQLHAHNNGSLAEEFDRTTGLSTGARDLTWSHASLITASYAKAGAPAA
For B1, the expression_or_secretion [1] was “decreases”.

B2: Rhizopus oryzae glucoamylase (RoGA): T165A (protein)
parent chain: B1 parent chain
In the case of B2, the expression_or_secretion [1] is reported as “no change” and the enzymatic_activity [2] is reported as “no change”.
